Data published in patent publication US20090208416A1.

Experiments:
[1] = target: NKG2A on rhesus monkey (Macaca mulatta) NK cells (rhesus monkey (Macaca mulatta)) (UniProt Q9MZJ3); assay: FACS rhesus whole blood NK cells, animal RU925
[2] = target: NKG2A on baboon NK cells (baboon); assay: FACS baboon whole blood NK cells, animal V9812
[3] = target: NKG2A on baboon NK cells (baboon); assay: FACS baboon whole blood NK cells, animal V857C
[4] = target: NKG2A on rhesus monkey (Macaca mulatta) NK cells (rhesus monkey (Macaca mulatta)) (UniProt Q9MZJ3); assay: FACS rhesus whole blood, animal R00099
[5] = target: NKG2A on rhesus monkey (Macaca mulatta) NK cells (rhesus monkey (Macaca mulatta)) (UniProt Q9MZJ3); assay: FACS rhesus whole blood, animal R00013
[6] = target: NKG2A on baboon NK cells (baboon); assay: FACS baboon whole blood NK cells, animal V9926
[7] = target: NKG2A on rhesus monkey (Macaca mulatta) NK cells (rhesus monkey (Macaca mulatta)) (UniProt Q9MZJ3); assay: FACS rhesus whole blood NK cells, animal *8703
[8] = target: NKG2A on rhesus monkey (Macaca mulatta) NK cells (rhesus monkey (Macaca mulatta)) (UniProt Q9MZJ3); assay: FACS rhesus whole blood, animal R00073 (6.1 kg)
[9] = target: NKG2A on cynomolgus monkey NK cells (cynomolgus monkey) (UniProt Q68VD2); assay: FACS cynomolgus whole blood, animal T788
[10] = target: NKG2A on rhesus monkey (Macaca mulatta) NK cells (rhesus monkey (Macaca mulatta)) (UniProt Q9MZJ3); assay: FACS rhesus whole blood, animal R00101
[11] = target: NKG2A on baboon NK cells (baboon); assay: FACS baboon whole blood NK cells, animal V861B
[12] = target: NKG2A on baboon NK cells (baboon); assay: FACS baboon whole blood NK cells, animal O22V
[13] = target: NKG2A on cynomolgus monkey NK cells (cynomolgus monkey) (UniProt Q68VD2); assay: FACS cynomolgus whole blood, animal R390
[14] = target: NKG2A on baboon NK cells (baboon); assay: FACS baboon whole blood NK cells, animal V9920
[15] = target: NKG2A on cynomolgus monkey NK cells (cynomolgus monkey) (UniProt Q68VD2); assay: FACS cynomolgus whole blood, animal AK729
[16] = target: NKG2A on rhesus monkey (Macaca mulatta) NK cells (rhesus monkey (Macaca mulatta)) (UniProt Q9MZJ3); assay: FACS rhesus whole blood NK cells, animal P9215
[17] = target: NKG2A on baboon NK cells (baboon); assay: FACS baboon whole blood NK cells, animal V9914
[18] = target: NKG2A on baboon NK cells (baboon); assay: FACS baboon whole blood NK cells, animal V9912
[19] = target: NKG2A on baboon NK cells (baboon); assay: FACS baboon whole blood NK cells, animal V992
[20] = target: NKG2A on baboon NK cells (baboon); assay: FACS baboon whole blood NK cells, animal V997
[21] = target: NKG2A on cynomolgus monkey NK cells (cynomolgus monkey) (UniProt Q68VD2); assay: FACS cynomolgus whole blood, animal AL303
[22] = target: NKG2A on baboon NK cells (baboon); assay: FACS baboon whole blood NK cells, animal V942A
[23] = target: NKG2A on baboon NK cells (baboon); assay: FACS baboon whole blood NK cells, animal V989
[24] = target: NKG2A on rhesus monkey (Macaca mulatta) NK cells (rhesus monkey (Macaca mulatta)) (UniProt Q9MZJ3); assay: FACS rhesus whole blood NK cells, animal 201
[25] = target: NKG2A on rhesus monkey (Macaca mulatta) NK cells (rhesus monkey (Macaca mulatta)) (UniProt Q9MZJ3); assay: FACS rhesus whole blood, animal 34459
[26] = target: NKG2A on baboon NK cells (baboon); assay: FACS baboon whole blood NK cells, animal K938A
[27] = target: NKG2A on rhesus monkey (Macaca mulatta) NK cells (rhesus monkey (Macaca mulatta)) (UniProt Q9MZJ3); assay: FACS rhesus whole blood, animal R00041

Chain of UniProt Q68VD2 (Q68VD2 entry or part of it): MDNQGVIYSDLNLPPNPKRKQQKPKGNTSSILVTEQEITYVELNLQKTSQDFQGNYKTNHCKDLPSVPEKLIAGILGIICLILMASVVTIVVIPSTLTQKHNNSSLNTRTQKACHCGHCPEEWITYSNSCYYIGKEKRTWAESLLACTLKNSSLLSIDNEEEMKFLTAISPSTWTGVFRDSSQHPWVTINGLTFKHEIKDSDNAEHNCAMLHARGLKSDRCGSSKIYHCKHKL
Chain of UniProt Q9MZJ3 (Q9MZJ3 whole entry): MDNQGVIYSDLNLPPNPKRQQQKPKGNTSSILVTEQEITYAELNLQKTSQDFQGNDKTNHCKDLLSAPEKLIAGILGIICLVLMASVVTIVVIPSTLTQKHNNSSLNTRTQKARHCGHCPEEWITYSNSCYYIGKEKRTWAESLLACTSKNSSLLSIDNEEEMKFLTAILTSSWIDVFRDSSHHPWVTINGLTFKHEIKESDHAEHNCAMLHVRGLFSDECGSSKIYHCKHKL

% [1]: 0.4% | % [2]: 1.3% | tot. MFI [2]: 1.2 | % [3]: 0.8% | tot. MFI [3]: 1.4 | % NK+ [4]: 1.2% | MFI [4]: 0.56 | % NK+ [5]: 0.3% | MFI [5]: 0.66 | % [6]: 0.5% | tot. MFI [6]: 0.2 | % [7]: 0.4% | % NK+ [8]: 0.7% | MFI [8]: 0.59 | % NK+ [9]: 0.3% | MFI [9]: 0.5 | % NK+ [10]: 0.5% | MFI [10]: 0.58 | % [11]: 0.2% | tot. MFI [11]: 0.6 | % [12]: 0.5% | tot. MFI [12]: 0.2 | % NK+ [13]: 0.2% | MFI [13]: 0.39 | % [14]: 0.7% | tot. MFI [14]: 0.8 | % NK+ [15]: 0.3% | MFI [15]: 0.6 | % [16]: 1.4% | % [17]: 0.1% | tot. MFI [17]: 0.3 | % [18]: 0.2% | tot. MFI [18]: 0.2 | % [19]: 0.6% | tot. MFI [19]: 0.3 | % [20]: 0.7% | tot. MFI [20]: 0.2 | % NK+ [21]: 0.13% | MFI [21]: 0.63 | % [22]: 1.7% | tot. MFI [22]: 1 | % [23]: 1.2% | tot. MFI [23]: 1.2 | % [24]: 1.3% | % NK+ [25]: 1.4% | MFI [25]: 0.76 | % [26]: 0.3% | tot. MFI [26]: 0.3 | % NK+ [27]: 0.9% | MFI [27]: 0.48
Substance: mouse IgG1 isotype control (antibody)
